US20210253725A1 (BIONTECH, published 2021)

T1: CD134 expressed on the cell surface of HT1080_OX40 cells (human, UniProt P43489 29-277)
T1 sequence (looked up): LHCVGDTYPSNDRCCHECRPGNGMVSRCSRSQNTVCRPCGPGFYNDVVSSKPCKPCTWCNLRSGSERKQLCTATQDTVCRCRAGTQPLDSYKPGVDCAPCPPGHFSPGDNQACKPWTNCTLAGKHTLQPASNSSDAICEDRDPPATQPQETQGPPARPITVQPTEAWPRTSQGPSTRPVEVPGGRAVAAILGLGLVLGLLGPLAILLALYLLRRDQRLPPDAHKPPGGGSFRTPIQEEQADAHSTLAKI

T2: CD134 protein (His-tagged, Sino Biological Inc. 10481-H08H) (human, UniProt P43489 29-216)
T2 construct: bought protein coated on ELISA plates; also called OX40; TNFRSF4; not shown: His tag
T2 sequence (looked up): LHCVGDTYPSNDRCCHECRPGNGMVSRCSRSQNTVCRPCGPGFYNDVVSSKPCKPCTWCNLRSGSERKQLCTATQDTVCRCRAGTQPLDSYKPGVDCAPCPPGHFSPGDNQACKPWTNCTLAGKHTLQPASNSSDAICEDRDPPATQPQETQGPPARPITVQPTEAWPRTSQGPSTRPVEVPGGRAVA

B1: P018.S.12.A.A03 (antibody, V domains shown)
VH: LEQSAGGAEGGLVKPGGSLELCCKASGFSLNNNYWICWVRQAPGKGLEWIGCIYVGVVSLTYSASWVNGRFTLSKDIDQSTGCLQLNSLTAADTAMYYCARSLYSGYAGYGDGYYGMDLWGPGTLVTVSS
VL: GVVMTQTPASVSDPVGGTVTIKCQASQSIGSDLAWYQQKPGQPPKLLIYAASNLASGVSSRFSGIRSGTEFTLTISDLESADAATYYCQCTDYVDSHDTFGGGTEVVVK
notes: V regions on human Ig constant parts; also called AB134_52
B2: P018.S.11.A.F03 (antibody, V domains shown)
VH: QEQLVESGGGLVQPEGSLTLTCKASGFDFNNNAMCWVRQAPGKGLEWIACIYDGSSGSTYYASWAKGRFTISKTSSSTVTLQMTSLTAADTATYFCARAYAAYTVYDYAFNLWGPGTLVTVSS
VL: DVVMTQTPASVSEPVGGTVTIKCQASQSIGSDLAWYQQKPGQPPKLLIYYTTNLETGVSSRFKGSGSGTQFTLTISDLESADAATYYCQYADRSSYSFGGGTEVVVK
notes: V regions on human Ig constant parts; also called AB134_39
B3: P018.S.08.A.B03 (antibody, V domains shown)
VH: QSVEESGGRLVTPGTPLTLTCTVSGFSLSRYAITWVRQAPGKGLEWIGIISSSGTTYYASWAKGRFTISKTSTTVDLKITSPTTEDTAIYFCARAIAGDAGYVYAIDWLDLWGQGTLVTVSS
VL: DPVLTQTPSSASEPVGGTVTIKCQASEYISNYLSWYQQKPGQPPKLLIFGASTLESGVPSRFSGSGSGTEFTLTISGVQSADAATYYCQGGYFSSSTTYVAFGGGTEVVVR
notes: V regions on human Ig constant parts; also called AB134_19
B4: P018.S.12.A.H04 (antibody, V domains shown)
VH: QSVEESGGRLVTPGTPLTLTCTASGFSLSDYYMSWVRQAPGKGLEWIGFMNSGGNAYYASWASGRFTISKTSTTVDLKITSPTTEDTATYFCVRDLSRFSLWGRGTLVIVSS
VL: AAVLTQTPSPVSAAVGGTVTINCQASPSVYSDYLSWFQQKPGQAPKLLIYWASTLTSGVPSRFSGSGSGTQFTLTISDVQSDDAATYYCAGGYSGNSDVWAFGGGTEVVVK
notes: V regions on human Ig constant parts; also called AB134_90
B5: P018.S.12.A.E06 (antibody, V domains shown)
VH: QSVEESGGRLVTPGTPLTLTCTVSGFSLSNYHMCWVRRAPGKGLEWIGSITTADETTHYANWAKGRFTISETSTTVDLRITSPTTEDTAIYFCGRTIRYDDYAVDLWGPGTLVTVSS
VL: DLVMTQTPASMSEPVGGTVTIKCQASESVGGYLAWYQQKAGQRPKLLIYAAGNLASGVPSRFKGSGSGTEYTLTISDLESADAATYYCQCTYFDSSYVGFGGGTEVVVR
notes: V regions on human Ig constant parts; also called AB134_77
B6: P018.S.12.A.D04 (antibody, V domains shown)
VH: QSVEESGGRLVTPGTPLTLTCTVSGIDLSSYAMGWVRQAPGKGLEYIGIISYDGSTYYASWAKGRFTISKTSTTVDLKITSPTTEDTATYFCARVDYGDYNFALWGQGTLVTVSS
VL: DVVMTQTPASVSEVVGGTVTIKCQASESISNYLAWYQQKPGQPPKLLIYAASNLASGVPSRFSGSGSGTQFTLTISDLESADAATYYCQCTYYVSSYFAFSGGTEVVVK
notes: V regions on human Ig constant parts; also called AB134_69
B7: P018.S.12.A.G01 (antibody, V domains shown)
VH: QSVEESGGRLVTPGTPLTLTCTVSGFSLSSSTMGWFRQAPGKGLEWIGVIYTDGDTYYARWAKGRFTISKTSTTINLSITSPTSEDTATYFCARRANGYDDFDPWGPGTLVTVSS
VL: AYDMTQTPASVEVAVGGTVTIKCQASESISSYLNWYQQKPGQPPKLLIYYESYLASGVPSRFKGSGSGTEYTLTISGVESADAATYYCQQGFSYINVDNTFGGGTEVVVK
notes: V regions on human Ig constant parts; also called AB134_83
B8: P018.S.11.A.E04 (antibody, V domains shown)
VH: QSVEESGGRLVTPGTPLTLTCTVSGFSLNDYAMSWVRQAPGKGLEWIGSIYTSGTPYYATWAKGRFTISKTSTTVDLKITSPTTEDTATYFCARQSGIDNYWLFTLWGQGTLVCVSS
VL: AYDMTQTPASVEVGVGGTVTIKCQASESIASGLAWYQQKPGQRPKLLIYSASSLASGVSSRFKGSGSGTQFTLTISDLESADAANYYCQQGYTSTNLHNVFGGGTEVVVK
notes: V regions on human Ig constant parts; also called AB134_35
B9: P018.S.12.A.H01 (antibody, V domains shown)
VH: QSVEESGGRLVTPGTPLTLTCTVSGFSLSSYAMSWVRQAPGKGLEWIGDINSYATTYYASWAKGRFTISKTSTTVDLKLTSPTTEDTATYFCAREAGYADLWGQGTLVTVSS
VL: AYDMTQTPASVEVAVGGTVTIKCQASQSISRYLSWYQQEPGQRPKLLIYEASTLASGVSSRFKGSGSGTQFTLTISGVESADAATYYCQQDYDSTDVGNTFGGGTEVVVK
notes: V regions on human Ig constant parts; also called AB134_88
B10: P018.S.12.A.C04 (antibody, V domains shown)
VH: QSLEESGGRLVTPGGSLTLTCTVSGIDLSRWTMSWVRQAPGKGLEWIGLIYASDDTVYASWAKGRFTISKTSTTVDLKITSPTTEDTATYFCVRVYGSTSGYYDLWGQGTLVTVSS
VL: DVVMTQTPASVSEPVGGTVTIKCQASQSISNWLAWYQQKPGQPPKLLIYYASTLASGVPSRFKGSGSGTQFTLTISDLESADAATYYCQNFGDGNSIGHAFGGGTEVVVK
notes: V regions on human Ig constant parts; also called AB134_64
B11: P018.S.11.A.B05 (antibody, V domains shown)
VH: QSVEESGGRLVTPGTPLTLTCTVSGFSLSTYNVAWVRQAPGKGLQYIGIMAFDGNTYYASWATGRFTISRTSTTVNLKITSPTTEDTATYFCCKGDPSSDTGTTLWGQGTLVTVSS
VL: AAVLTQTPSSASEPVGGTVTIKCQSSPSVYSNNWLAWFQQKPGQRPKLLIYAAAKLASGVPSRFRGSGSGTQFTLTISDVQSDDAATYYCAGGFNSDSDTTFGGGTEVVVK
notes: V regions on human Ig constant parts; also called AB134_26
B12: P018.S.12.A.G02 (antibody, V domains shown)
VH: QSLEESGGRLVTPGTPLTLTCTASGFSLNMFYMIWVRQAPGKGLEWIGMIDSMGSAWYASWAKGRFTISKTSTAVALKITSPTTEDTATYFCARAINGDGAGDLWGQGTLVTVSS
VL: DVVMTQTPASVSAAVGGTVTINCRASEKIDSFLAWYQQKPGQPPKLLIYGASELAPGVPSRFSGSGSGTDYTLTISALESADAATYYCQSTADGSDYVGTFGGGTEVVVK
notes: V regions on human Ig constant parts; also called AB134_84

Assays:
[1] = biological target: T1, CD134 expressed on the cell surface of …; assay: cell-based or functional assay
[2] = biological target: T1, CD134 expressed on the cell surface of …; assay: HT1080_OX40 cells, imaging
[3] = biological target: T2, CD134 protein (His-tagged, Sino …); assay: ELISA, coated His-tagged CD134
Note: test concentration or dose not given here.

Row | Binder | Functional assay Cross-linked by F(ab′)2 fragment IL-8 [1] | Functional assay IL-8 [1] | Cellular binding assay [RFU] [2] | ELISA [abs. corr.] [3]
1 | B1 | 1.95 abs. corr. | 0.393 abs. corr. | 493 RFU | 1.44 abs. corr.
2 | B2 | 1.94 abs. corr. | 0.38 abs. corr. | 522 RFU | 1.85 abs. corr.
3 | B3 | 1.94 abs. corr. | 0.709 abs. corr. | 477 RFU | 2.66 abs. corr.
4 | B4 | 1.89 abs. corr. | -0.121 abs. corr. | 295 RFU | 1.98 abs. corr.
5 | B5 | 1.87 abs. corr. | 0.054 abs. corr. | 493 RFU | 2.3 abs. corr.
6 | B6 | 1.86 abs. corr. | 0.139 abs. corr. | 488 RFU | 2.23 abs. corr.
7 | B7 | 1.86 abs. corr. | 1.33 abs. corr. | 526 RFU | 1.56 abs. corr.
8 | B8 | 1.83 abs. corr. | -0.194 abs. corr. | 416 RFU | 1.31 abs. corr.
9 | B9 | 1.83 abs. corr. | 0.43 abs. corr. | 523 RFU | 1.89 abs. corr.
10 | B10 | 1.83 abs. corr. | 0.215 abs. corr. | 509 RFU | 2.04 abs. corr.
11 | B11 | 1.83 abs. corr. | 1.36 abs. corr. | 456 RFU | 1.65 abs. corr.
12 | B12 | 1.81 abs. corr. | 0.212 abs. corr. | 530 RFU | 2.33 abs. corr.
